{
  "source": "the domain aggregation screens of Martell et al. (2025)",
  "data": [
    {"experiment": "soluble fraction after stress (log2 fold change); higher = more stays soluble; pooled small domains, quantitative proteomics", "conditions": "stress: 75 degC", "values": [
      {"sequence": "HMYEVVPNMKGLSYEQAATALRTAGLEPELSDSIYDDKTRPGTVLEQSPRANTKVKPGRTVYLTVNAF", "soluble fraction (log2)": 0.0171},
      {"sequence": "HMYFFNTFTQRLFDNPELTQEEAIRQMYPGISGVQTAEKLQENFMADVYIQAAIRQEIVVQLIR", "soluble fraction (log2)": -0.485},
      {"sequence": "HMYGSLGEYELAAVQWIYGKGKITTRELSSLIGKGLTLSSKTLRGLAAKGILEWHGNSKNDPSQFYSLP", "soluble fraction (log2)": -2.42},
      {"sequence": "HMYHADLIGLEARSTAGDKLGEVNAVYNFGAGDLIEIKMTDGNLEMLPFTRQYVPTVSIKDGFIIVQM", "soluble fraction (log2)": -1.32},
      {"sequence": "HMYHIYPVADNDTPKLSADRLEYSLSNALLTNKLLNIDEIKKIYNDVILDKDEDGTLELSFKS", "soluble fraction (log2)": 0.127},
      {"sequence": "HMYIDANTALLAKRIQAKNGFLPLSDKSTAEEIYAEFGISKKAFKKALGALYKERLVRIGDEGVVWV", "soluble fraction (log2)": -2.46},
      {"sequence": "HMYINVQNARTIASFRSSLWRMHRDFTNQGYITADGLKTFLEMGKLYEDAGGNDIYHSKLLPEITALEIKY", "soluble fraction (log2)": -2.84},
      {"sequence": "HMYKDVVVPNTVGDSEEKAYQTLSALGLVVNITYDEDASKSDRVVTSQNPTNKTIKEGESVNIVVNKQP", "soluble fraction (log2)": 0.573},
      {"sequence": "HMYKIDFAEGDRVIIKGGAFSGLRATVVSLHPEKGMAKIKVYMFGDRETLVDIEVSQLEKDK", "soluble fraction (log2)": -0.785},
      {"sequence": "HMYKTKVDIAYDMLMERITEGVYKPGEKLVITHISKELGISDIPVREAIRRLESEGYVKILPNQGAIVYD", "soluble fraction (log2)": -0.671},
      {"sequence": "HMYLGRKATLLSSISGEKMGNAEVLADGNLMSIYVKSLTGEPLSYGSTVLIIKHSEDQNFYLVQN", "soluble fraction (log2)": -3.54},
      {"sequence": "HMYLQKGISNGKVYLSIVHGYRDPVTKKVRRKTIRSLGYLEDLEKQYADPIKHFEAVVAKMNEEEALE", "soluble fraction (log2)": -1.88},
      {"sequence": "HMYLSNPTYRGDSLVDALTQIGVDASFASRRDLARKNGIENYTGSAKQNLELLQLLREGRLR", "soluble fraction (log2)": 0.402},
      {"sequence": "HMYLYADIYKKLEEKIKNMEVGEKLPSERAMVQEYGVSRNVLREALVLLSERGLIEIRPGKGSYVTNQQ", "soluble fraction (log2)": -1.17},
      {"sequence": "HMYNKKAYVNTNSDFLNVRSEASTESSVVDKLARGTEVNIVGNIQNGFYPIVLNEKNAWVSSDWISFEKPT", "soluble fraction (log2)": 0.053},
      {"sequence": "HMYNNDEIEKIQTMYNAIYQLNDIEKALIMLFLEDKSYKEIAEIMGISEGNARIKMMRTKDKLKNLISKN", "soluble fraction (log2)": -0.527},
      {"sequence": "HMYNNGYVNSDRVNFRKGASTNSDIYKVLDKNTSVTILDYEGDWSKVKINDTVGYVYTKYITAG", "soluble fraction (log2)": -0.368},
      {"sequence": "HMYNTDAMGVRIGELRRAKGLTQEAFAKTLGISAQAVSKWETGLGFPDISLLPMIAETLGTKIETLFGAE", "soluble fraction (log2)": -0.299},
      {"sequence": "HMYPATGTVVTAGGHLNMRSEPDRSGAILARIPNGTALTLTGKNGDWYAATYAGRSGYVSAQYISLS", "soluble fraction (log2)": -0.421},
      {"sequence": "HMYPDNSGDIQQLAQNIFRQENVSVDRDGLALISSRLGSDHAATRSEIEKLALLAGPGGTLTFETISEVLG", "soluble fraction (log2)": -0.145},
      {"sequence": "HMYPEDMMSLMRRALRLINHLESNRKDRHNSRQLELTESKIRRLARYYKGRGLIETEWAYKRDQLRLLV", "soluble fraction (log2)": -0.532},
      {"sequence": "HMYPIYDYISNMYLGKHLNAGMSLEEARGIMDEMLEKLLFDVPEEYHIDRDHFYEYLKKYYTERFSA", "soluble fraction (log2)": -1.73},
      {"sequence": "HMYPQLIGFKVIDEDKGEVGVVKEVSESMHQILLTVMKGKKEILIPLAEEFITKVNRHKKELFMVLPDG", "soluble fraction (log2)": -0.192},
      {"sequence": "HMYRLDVEISDEIKRDIDEETLSEIKGIIAEDPRPSYQNDETRIYRFTFAGREISFRVKDRTATVTEIL", "soluble fraction (log2)": -0.921},
      {"sequence": "HMYRPLYQQVYDFLVKQIAAGEWGPGESLPSEQALAGRLNVSQGTVRKALDALAADSLIDRRQGKGTYVAE", "soluble fraction (log2)": -0.236},
      {"sequence": "HMYRPQQEFTMRDLFQNNLNGSESASVRRDALGAELGIGYGNAKRFLERLNHYGVSREEFTAALEKLESE", "soluble fraction (log2)": -0.522},
      {"sequence": "HMYRSGGYTGAGKDDEEAGVVHRNEFVNTADAVRNPHVKRFLDVFNVAQKDGTIRMLNTSQILERARLDA", "soluble fraction (log2)": 0.115},
      {"sequence": "HMYRYGETPMVVVPDLIGRTVSDIYEEMNADFRLEKFGNGNTVISQAPKPGERVEQGSVIRVYLSGQDQ", "soluble fraction (log2)": 0.0556},
      {"sequence": "HMYSDERLQTFMELLPFFVEELSNKHVTRYNVWQNYREAYPNGYGRSQFFFHLGQNLEAKKK", "soluble fraction (log2)": -1.34},
      {"sequence": "HMYSIKEFSFEVTTPGQRLDLFLSEELIGQTRSSIQNLILKKYVTVNGQVSKASYKVKTGEFISVKIPV", "soluble fraction (log2)": -3.1},
      {"sequence": "HMYSINKTEFGERIKSAREELKMTQTQLAQLLKTSQTTVAKYEHGEQIPRADVLATISKATGKSTDWLLFG", "soluble fraction (log2)": -0.268},
      {"sequence": "HMYSKQRELIMEAVFKNRVHPTAEYVYKLLKKDHPELSLGTVYRNLNYWAENNMLKKINVPGGSDRFDGT", "soluble fraction (log2)": 0.0438},
      {"sequence": "HMYSLGPKERSIVSFIANRPGSRSGQIAKSLQIPLPTIKRILNGLVENKVIARHGIGAGTNYVVEDQA", "soluble fraction (log2)": -0.711},
      {"sequence": "HMYSMSAPMPGVILEIKVAPGDQVNKGDVVMVLEAMKMKNDLHAARTGTVESIDINSGEQVKYGQVLLRFV", "soluble fraction (log2)": -0.225},
      {"sequence": "HMYSQIGYGSSGSDVRKLQEILNGKGYNLSVDGQFGAKTKSAVRDYQSKNGLSVDGIVGVNTWGKLT", "soluble fraction (log2)": -0.0992},
      {"sequence": "HMYSYNKEEVGKRIKSIRQQKGLTQESFGELFGASKGNVATWEKGISLPNASRLREIADLVSITVEELLYG", "soluble fraction (log2)": -0.735},
      {"sequence": "HMYTLGEESDGTVRLLELYDIIKNKNEKIFVVDELDRSLHPNLTFNFVKKYLSIENKSQLIVSTH", "soluble fraction (log2)": 0.0677},
      {"sequence": "HMYVKKSSFVKKSLNNYEFKITDNTNDLLIFYKGMLPDLFREEQGIVVEGLIDKNNNIVASKV", "soluble fraction (log2)": 0.0603},
      {"sequence": "HMYVSGVPAITSIERVSTPGRRVYAGYTTVPKVIGGMGVSILTTSRGVMTDAEARRQKVGGELLAKV", "soluble fraction (log2)": 0.234},
      {"sequence": "HMYVTGSAIRRLREKRKLTQAQLAAALSVSDKTVSKWETARGLPDITLLEPLARALQVSVPELLSGEEV", "soluble fraction (log2)": -1.58},
      {"sequence": "HMYVVLYPGMARDEAVQVMNELQSRGIDYYEKNGNIYVPKTDENSLRMELANLGYPKTTNNYD", "soluble fraction (log2)": -0.0096},
      {"sequence": "HMYYHQIIGLDVVDENGNTLGKIKEILSPGANDVWVVKRKQKNDLLLPVIDDVIKDVDLAAGKVHVELLEG", "soluble fraction (log2)": -0.269}
    ]}
  ]
}
